Positions count from the first letter of the chain named.
B1: 17D2 IgG (antibody, V domains shown)
VH: DVQIQQSGPELVKPGASVKMSCKASGYSFTAYNMHWVKQTHGKSLEWIGYIDPYSGATSYHQKFKGKATLTVDKSSSTAYMRLNSLTSEDSAVYYCARRWDWDPYAMDYWGQGTSVTVSS
VL: SVEMSQSPAILSVSPGERISFSCRASQSIGTSIHWYQQRTNGSPRLLIKYASASISGIPSRFSGSGSGTDFTLSINSVESEDIADYYCQQSNSWPLTFGAGTKLELKR
B2: 16E5 IgG (antibody, V domains shown)
VH: B1 VH with I4L, Q5V, A31G, T40S, S55N, H61N, K65E, G66D, R82Q
VL: B1 VL with S1D, V2I, E3L, M4L, S5T, I19V, A53E, P59F, S74T, S93R
B3: 5C9 Fab (Fab, from another filing, V domains shown)
VH: EVQLVESGGGLIQPGGSLRLSCAASGFTVSSNYMSWVRQAPGKGLEWVSVTYSGGSTSYADSVKGRFTISRDNSKNTLYLQMNSLRAEDTAVYYCARGGRYCSSISCYARSGCDYWGQGTLVTVSS
VL: AIQMTQSPSSLSASVGDRVTITCRASQSISNYLNWYQQKPGKAPKLLIYAASSLQSGVPSRFSGSGSGTDFTLTISSLQPEDFATYYCQQSYSSPSTTFGQGTKLEIK

Tests used:
TSHR coated onto tubes [1] = molecular target: T1, TSHR coated onto tubes (human, UniProt P16473 21-764, limits assumed); assay: TSHR coated tubes, competitor 125I-M22 IgG
T1 construct: whole entry named; also called TSHR coated tubes; thyrotropin receptor

TSHR coated onto tubes [2] = molecular target: T1, TSHR coated onto tubes; assay: TSHR coated tubes, competitor 125I-5C9 IgG
TSHR coated onto tubes [3] = molecular target: T1, TSHR coated onto tubes; assay: TSHR coated tubes, competitor 125I-TSH
[4] = molecular target: human TSHR, wild type, expressed on CHO cells (human) (UniProt P16473); assay: cell-based or functional assay
[5] = molecular target: human TSHR (wild type) expressed in CHO cells (human) (UniProt P16473); assay: cell-based or functional assay

Row | Binder | % inhib of 125I-M22 IgG binding at 0.01 µg/mL (TSHR coated onto tubes [1]) | % inhib of 125I-M22 IgG binding at 0.1 µg/mL (TSHR coated onto tubes [1]) | % inhib of 125I-M22 IgG binding at 1 µg/mL (TSHR coated onto tubes [1]) | % inhib of 125I-M22 IgG binding at 10 µg/mL (TSHR coated onto tubes [1]) | % inhib of 125I-M22 IgG binding at 100 µg/mL (TSHR coated onto tubes [1]) | % inhib of 125I-5C9 IgG binding at 0.01 µg/mL (TSHR coated onto tubes [2]) | % inhib of 125I-5C9 IgG binding at 0.1 µg/mL (TSHR coated onto tubes [2]) | % inhib of 125I-5C9 IgG binding at 1 µg/mL (TSHR coated onto tubes [2]) | % inhib of 125I-5C9 IgG binding at 10 µg/mL (TSHR coated onto tubes [2]) | % inhib of 125I-5C9 IgG binding at 100 µg/mL (TSHR coated onto tubes [2]) | % inhib of 125I-TSH binding at 0.01 µg/mL (TSHR coated onto tubes [3]) | % inhib of 125I-TSH binding at 0.1 µg/mL (TSHR coated onto tubes [3]) | % inhib of 125I-TSH binding at 1 µg/mL (TSHR coated onto tubes [3]) | % inhib of 125I-TSH binding at 10 µg/mL (TSHR coated onto tubes [3]) | % inhib of 125I-TSH binding at 100 µg/mL (TSHR coated onto tubes [3]) | also measured
1 | B1 | 1% | 13% | 24% | 39% | 49% | 3% | 11% | 26% | 43% | 55% | 3% | 7% | 24% | 43% | 56% | –
2 | B2 | 12% | 22% | 40% | 51% | 53% | 20% | 34% | 47% | 53% | 59% | 9% | 26% | 39% | 44% | 48% | –
3 | B3 | – | – | – | – | – | – | – | – | – | – | – | – | – | – | – | % inhibition of basal cyclic AMP production; Exp 3; 5C9 F(ab′) 0.001 µg/mL [4]: 3%; % inhibition of basal cyclic AMP production; Exp 3; 5C9 F(ab′) 0.1 µg/mL [4]: 19%; % inhibition of basal cyclic AMP production; Exp 3; 5C9 F(ab′) 1 µg/mL [4]: 23%; % inhibition of basal cyclic AMP production; Exp 3; 5C9 F(ab′) 10 µg/mL [4]: 39%; % inhibition of basal cyclic AMP production; Exp 3; 5C9 F(ab′) 100 µg/mL [4]: 48%; % inhibition of basal cyclic AMP production; Exp 3; 5C9 Fab 0.1 µg/mL [4]: 11%; % inhibition of basal cyclic AMP production; Exp 3; 5C9 Fab 1 µg/mL [4]: 39%; % inhibition of basal cyclic AMP production; Exp 3; 5C9 Fab 10 µg/mL [4]: 46%; % inhibition of basal cyclic AMP production; Exp 3; 5C9 Fab 100 µg/mL [4]: 61%; cyclic AMP; Example 1; 5C9 Fab 10 µg/mL + TSH (fmol/cell well) [5]: 1280; cyclic AMP; Example 1; 5C9 Fab 100 µg/mL + TSH (fmol/cell well) [5]: 938; cyclic AMP; Example 1; 5C9 Fab 100 µg/mL only (fmol/cell well) [5]: 235; cyclic AMP; Example 2; 5C9 Fab 10 µg/mL + TSH (fmol/cell well) [5]: 4130; cyclic AMP; Example 2; 5C9 Fab 100 µg/mL + TSH (fmol/cell well) [5]: 867; cyclic AMP; Example 2; 5C9 Fab 100 µg/mL only (fmol/cell well) [5]: 212

Reference: US8840891 (RSR, dated 2014)
